Patent publication US20240376224A1 (University of California, published 2024)

Key:
[1] = target: T1, NTF immobilized via the N-termini (human, UniProt Q9H5V8 30-367, limits assumed); experiment: multipoint BLI (Octet), His-NTF on a Ni-NTA biosensor, CL03 Fab at 100, 50, 25, 12.5, 6.25 nM
T1 sequence: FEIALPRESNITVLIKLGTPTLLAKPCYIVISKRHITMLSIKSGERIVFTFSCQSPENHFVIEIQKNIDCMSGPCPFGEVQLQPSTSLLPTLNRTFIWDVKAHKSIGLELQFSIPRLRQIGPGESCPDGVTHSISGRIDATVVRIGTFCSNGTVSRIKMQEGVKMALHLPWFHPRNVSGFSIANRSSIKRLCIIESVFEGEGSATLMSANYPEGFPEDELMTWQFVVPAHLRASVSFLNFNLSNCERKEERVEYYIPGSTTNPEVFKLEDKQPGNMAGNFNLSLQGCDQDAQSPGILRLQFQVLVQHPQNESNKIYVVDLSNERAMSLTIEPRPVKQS
Experimental: (§1) BLI experiments were performed using an Octet RED384 instrument (ForteBio). Biotinylated proteins were immobilized on a streptavidin (SA) biosensor and His-tagged proteins were immobilized on a Ni-NTA biosensor. Different concentrations of analyte in PBS pH 7.4+0.05% Tween-20+0.2% BSA (PBSTB) were used as analyte. Affinities (KDS) were calculated from a global fit (1:1) of the data using the Octet RED384 software.
(§2) To investigate the binding mechanism of CL03, the binding of CL03 to different CDCP1 antigens was measured by BLI using standard methods. In instances when the C-termini of the NTF was immobilized either via an Fc domain or directly to the biosensor surface, there was no binding of CL03 (FIG. 6A-FIG. 6B). In instances when the NTF was immobilized via the N-termini, CL03 bound NTF at similar affinity to the full c-CDCP1 antigen (FIG. 6B-FIG. 6C). Additionally, it was observed that CL03 recognized an uncleaved CDCP1 variant where a 16-amino acid linker was inserted between CUB1 and CUB2 at the R368/K369 proteolysis site (FIG. 6D).

c-CDCP1-Fc (Cut 3) = target: T2, c-CDCP1-Fc (Cut 3) (human, UniProt Q9H5V8 30-369; Q9H5V8 370-667); experiment: BLI (Octet), table of in vitro binding affinities
T2 construct: Co-transfection of NTF and CTF-Fc plasmids; not shown: Fc domain
T2 sequence 1: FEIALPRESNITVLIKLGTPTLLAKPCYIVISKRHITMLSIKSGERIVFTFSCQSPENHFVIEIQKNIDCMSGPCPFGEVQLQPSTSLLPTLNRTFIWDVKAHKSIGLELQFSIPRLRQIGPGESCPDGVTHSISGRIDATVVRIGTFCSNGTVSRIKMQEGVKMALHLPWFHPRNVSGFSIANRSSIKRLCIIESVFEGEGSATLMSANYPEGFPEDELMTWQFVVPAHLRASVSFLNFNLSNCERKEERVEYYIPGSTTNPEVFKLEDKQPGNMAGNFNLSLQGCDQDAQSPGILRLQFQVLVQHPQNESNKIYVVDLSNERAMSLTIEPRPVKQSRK
T2 sequence 2: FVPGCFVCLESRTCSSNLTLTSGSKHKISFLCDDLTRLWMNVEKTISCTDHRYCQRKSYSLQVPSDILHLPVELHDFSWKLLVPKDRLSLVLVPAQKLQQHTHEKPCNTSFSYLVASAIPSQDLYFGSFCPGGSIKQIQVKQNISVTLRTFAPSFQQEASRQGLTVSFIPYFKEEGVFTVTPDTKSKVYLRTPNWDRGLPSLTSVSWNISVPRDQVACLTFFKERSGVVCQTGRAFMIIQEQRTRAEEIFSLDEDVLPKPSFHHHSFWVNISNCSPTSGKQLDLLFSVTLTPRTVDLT
Experimental: as §1

c-CDCP1-Fc (Cut 1) = target: T3, c-CDCP1-Fc (Cut 1) (human, UniProt Q9H5V8 30-365; Q9H5V8 366-667); experiment: BLI (Octet), table of in vitro binding affinities
T3 construct: Co-transfection of NTF and CTF-Fc plasmids; not shown: Fc domain
T3 sequence 1: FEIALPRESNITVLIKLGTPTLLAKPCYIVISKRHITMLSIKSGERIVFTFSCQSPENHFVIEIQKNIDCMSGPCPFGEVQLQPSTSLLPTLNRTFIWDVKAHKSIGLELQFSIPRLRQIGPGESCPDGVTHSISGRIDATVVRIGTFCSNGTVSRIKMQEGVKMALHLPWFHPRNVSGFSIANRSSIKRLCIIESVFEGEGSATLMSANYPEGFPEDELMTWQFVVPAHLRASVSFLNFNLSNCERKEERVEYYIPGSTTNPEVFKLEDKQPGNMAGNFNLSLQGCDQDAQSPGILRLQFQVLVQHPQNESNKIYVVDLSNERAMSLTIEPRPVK
T3 sequence 2: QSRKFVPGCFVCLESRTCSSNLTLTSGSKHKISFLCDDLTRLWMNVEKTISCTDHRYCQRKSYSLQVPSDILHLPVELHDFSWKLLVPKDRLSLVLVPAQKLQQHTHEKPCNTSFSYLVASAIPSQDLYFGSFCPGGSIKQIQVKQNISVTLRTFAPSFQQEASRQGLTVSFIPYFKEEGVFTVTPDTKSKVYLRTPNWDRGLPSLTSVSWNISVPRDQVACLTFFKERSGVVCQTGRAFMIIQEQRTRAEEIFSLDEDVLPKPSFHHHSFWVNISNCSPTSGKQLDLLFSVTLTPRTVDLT
Experimental: as §1

c-CDCP1-Fc (Cut 2) = target: T4, c-CDCP1-Fc (Cut 2) (human, UniProt Q9H5V8 30-368; Q9H5V8 369-667); experiment: BLI (Octet), table of in vitro binding affinities
T4 construct: Co-transfection of NTF and CTF-Fc plasmids; not shown: Fc domain
T4 sequence 1: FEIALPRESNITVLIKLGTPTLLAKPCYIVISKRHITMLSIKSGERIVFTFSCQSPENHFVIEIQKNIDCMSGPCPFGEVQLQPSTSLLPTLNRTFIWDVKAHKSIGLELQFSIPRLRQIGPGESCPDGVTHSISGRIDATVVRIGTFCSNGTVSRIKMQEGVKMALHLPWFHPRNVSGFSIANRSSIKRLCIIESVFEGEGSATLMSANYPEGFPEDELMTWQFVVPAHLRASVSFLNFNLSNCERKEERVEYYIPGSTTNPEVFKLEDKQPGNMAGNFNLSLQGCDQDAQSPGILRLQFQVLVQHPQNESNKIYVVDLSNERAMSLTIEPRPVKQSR
T4 sequence 2: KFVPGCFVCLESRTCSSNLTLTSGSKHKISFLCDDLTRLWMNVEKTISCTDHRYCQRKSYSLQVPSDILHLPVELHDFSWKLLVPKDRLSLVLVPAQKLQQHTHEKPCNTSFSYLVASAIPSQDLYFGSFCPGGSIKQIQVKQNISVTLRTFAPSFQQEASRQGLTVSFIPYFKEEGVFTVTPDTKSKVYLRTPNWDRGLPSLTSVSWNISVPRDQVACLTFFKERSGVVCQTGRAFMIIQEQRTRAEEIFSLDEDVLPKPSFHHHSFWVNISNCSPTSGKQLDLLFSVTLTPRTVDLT
Experimental: as §1

[2] = target: T5, c-CDCP1 (Cut 3) ectodomain (human, UniProt Q9H5V8 30-369; Q9H5V8 370-667); experiment: multipoint BLI (Octet), c-CDCP1 (Cut 3) held by its His-tag on a Ni-NTA biosensor, CL03 Fab at 100, 50, 25, 12.5, 6.25 nM
T5 construct: Made by co-transfection of NTF and CTF plasmids, purified by Ni-NTA (tag not described); also called cCDCP1 ECD cut 3
T5 sequence 1: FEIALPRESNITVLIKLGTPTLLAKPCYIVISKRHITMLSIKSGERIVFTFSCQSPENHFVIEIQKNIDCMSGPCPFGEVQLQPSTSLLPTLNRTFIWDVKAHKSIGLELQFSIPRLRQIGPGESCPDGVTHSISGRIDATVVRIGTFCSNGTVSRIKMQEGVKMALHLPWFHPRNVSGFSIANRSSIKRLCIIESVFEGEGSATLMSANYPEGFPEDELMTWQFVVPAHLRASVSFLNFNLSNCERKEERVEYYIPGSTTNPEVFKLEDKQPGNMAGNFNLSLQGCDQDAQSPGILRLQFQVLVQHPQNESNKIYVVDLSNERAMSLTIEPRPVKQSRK
T5 sequence 2: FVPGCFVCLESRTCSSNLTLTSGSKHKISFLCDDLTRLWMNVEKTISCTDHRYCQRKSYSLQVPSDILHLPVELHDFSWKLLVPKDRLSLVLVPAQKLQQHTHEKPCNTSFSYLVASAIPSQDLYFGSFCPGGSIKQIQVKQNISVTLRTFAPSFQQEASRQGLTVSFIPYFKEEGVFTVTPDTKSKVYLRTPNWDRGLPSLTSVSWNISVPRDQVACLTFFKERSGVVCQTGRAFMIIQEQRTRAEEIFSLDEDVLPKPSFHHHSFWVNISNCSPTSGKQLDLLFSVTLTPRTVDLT
Experimental: as §1, §2

[3] = target: T6, full-length (uncleaved) human CDCP1 on cells (human, UniProt Q9H5V8 30-836); experiment: flow cytometry, dose response on HEK293T-flCDCP1 cells (CDCP1 WT)
T6 construct: HPAC cells express mostly uncleaved CDCP1 (endogenous); also called fl-CDCP1; uncleaved CDCP1 on HPAC cells
T6 sequence: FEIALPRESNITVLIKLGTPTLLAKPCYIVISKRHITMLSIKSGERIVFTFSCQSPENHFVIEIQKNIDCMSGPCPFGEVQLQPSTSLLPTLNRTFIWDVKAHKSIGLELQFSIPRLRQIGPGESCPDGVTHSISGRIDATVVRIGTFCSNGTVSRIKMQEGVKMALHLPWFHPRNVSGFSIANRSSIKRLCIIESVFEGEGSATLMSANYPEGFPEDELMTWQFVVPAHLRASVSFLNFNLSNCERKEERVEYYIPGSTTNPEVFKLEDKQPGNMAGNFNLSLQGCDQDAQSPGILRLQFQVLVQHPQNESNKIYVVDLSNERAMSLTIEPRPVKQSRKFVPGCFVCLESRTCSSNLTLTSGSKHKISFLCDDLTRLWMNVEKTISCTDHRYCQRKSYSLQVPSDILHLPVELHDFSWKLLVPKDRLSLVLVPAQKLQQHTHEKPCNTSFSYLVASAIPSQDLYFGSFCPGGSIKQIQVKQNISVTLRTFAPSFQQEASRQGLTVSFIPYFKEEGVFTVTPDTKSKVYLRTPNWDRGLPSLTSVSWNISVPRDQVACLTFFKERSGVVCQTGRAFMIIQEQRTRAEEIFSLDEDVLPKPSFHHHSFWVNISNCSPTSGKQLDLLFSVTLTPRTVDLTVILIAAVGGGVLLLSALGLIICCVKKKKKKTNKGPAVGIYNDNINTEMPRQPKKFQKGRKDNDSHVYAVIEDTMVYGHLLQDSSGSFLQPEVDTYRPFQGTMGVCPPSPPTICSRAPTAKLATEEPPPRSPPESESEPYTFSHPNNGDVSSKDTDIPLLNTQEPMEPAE

[4] = target: T7, c-CDCP1 (Cut 3) on HEK293T cells (human, UniProt Q9H5V8 30-369; Q9H5V8 370-836); experiment: flow cytometry, dose response on HEK293T-cCDCP1 cells (CDCP1 WT)
T7 construct: T2A remnants not described; also called HEK293T c-CDCP1
T7 sequence 1: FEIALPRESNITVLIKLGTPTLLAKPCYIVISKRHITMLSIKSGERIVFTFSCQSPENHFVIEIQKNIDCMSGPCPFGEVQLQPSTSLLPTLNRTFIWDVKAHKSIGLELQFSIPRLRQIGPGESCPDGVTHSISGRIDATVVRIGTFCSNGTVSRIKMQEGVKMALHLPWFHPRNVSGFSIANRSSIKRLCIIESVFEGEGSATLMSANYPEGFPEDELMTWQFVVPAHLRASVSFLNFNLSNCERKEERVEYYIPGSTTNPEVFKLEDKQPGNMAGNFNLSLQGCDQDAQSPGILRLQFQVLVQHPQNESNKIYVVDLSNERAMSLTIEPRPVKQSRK
T7 sequence 2: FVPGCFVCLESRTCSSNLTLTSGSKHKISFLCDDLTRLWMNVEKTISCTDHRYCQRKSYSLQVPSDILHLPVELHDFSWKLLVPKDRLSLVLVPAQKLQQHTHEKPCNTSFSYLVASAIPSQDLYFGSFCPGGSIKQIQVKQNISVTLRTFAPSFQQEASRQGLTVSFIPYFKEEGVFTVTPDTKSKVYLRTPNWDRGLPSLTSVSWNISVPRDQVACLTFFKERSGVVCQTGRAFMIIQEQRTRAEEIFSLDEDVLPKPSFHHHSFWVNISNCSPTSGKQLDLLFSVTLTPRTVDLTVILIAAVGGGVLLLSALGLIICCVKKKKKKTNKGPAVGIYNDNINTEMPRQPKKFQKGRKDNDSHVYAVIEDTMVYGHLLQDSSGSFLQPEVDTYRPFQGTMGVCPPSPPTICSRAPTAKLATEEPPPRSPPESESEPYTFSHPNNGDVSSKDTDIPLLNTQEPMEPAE

B1: CL03 Fab (Fab, V domains shown)
VH: EVQLVESGGGLVQPGGSLRLSCAASGFNFSSYSIHWVRQAPGKGLEWVASIYPYSGSTYYADSVKGRFTISADTSKNTAYLQMNSLRAEDTAVYYCARQSHSYYSHTWWVSYGMDYWGQGTLVTVSS
VL: DIQMTQSPSSLSASVGDRVTITCRASQSVSSAVAWYQQKPGKAPKLLIYSASSLYSGVPSRFSGSRSGTDFTLTISSLQPEDFATYYCQQSGQRPITFGQGTKVEIKR
notes: also called Fab CL03
B1 showed a Kd [1] of 10.5 nM, a Kd (c-CDCP1-Fc (Cut 3)) of 3.59 nM and a Kd (c-CDCP1-Fc (Cut 1)) of 2.26 nM. For the same binder, the koff (c-CDCP1-Fc (Cut 1)) was 0.000648 s⁻¹, the kon (c-CDCP1-Fc (Cut 1)) was 288000 M⁻¹ s⁻¹ and the Kd (c-CDCP1-Fc (Cut 2)) was 3.91 nM. For the same binder, the Kd [2] was 9.74 nM.

B2: IgG 4A06 (antibody, V domains shown)
VH: EVQLVESGGGLVQPGGSLRLSCAASGFNLSYYYIHWVRQAPGKGLEWVASIYSSSSYTSYADSVKGRFTISADTSKNTAYLQMNSLRAEDTAVYYCARAYYGFDYWGQGTLVTVSS
VL: DIQMTQSPSSLSASVGDRVTITCRASQSVSSAVAWYQQKPGKAPKLLIYSASSLYSGVPSRFSGSRSGTDFTLTISSLQPEDFATYYCQQSYYYYPITFGQGTKVEIK
For B2, the “EC50 (read off the curve)” value [3] was about 1 nM and the “EC50 (read off the curve)” value [4] was about 0.4 nM.
